Results published in US20010052137.

How the values were obtained:
[1] = system: T1, Myc-tagged C-term fragment of Xaxin (amino acid residues 429-713)
T1 sequence: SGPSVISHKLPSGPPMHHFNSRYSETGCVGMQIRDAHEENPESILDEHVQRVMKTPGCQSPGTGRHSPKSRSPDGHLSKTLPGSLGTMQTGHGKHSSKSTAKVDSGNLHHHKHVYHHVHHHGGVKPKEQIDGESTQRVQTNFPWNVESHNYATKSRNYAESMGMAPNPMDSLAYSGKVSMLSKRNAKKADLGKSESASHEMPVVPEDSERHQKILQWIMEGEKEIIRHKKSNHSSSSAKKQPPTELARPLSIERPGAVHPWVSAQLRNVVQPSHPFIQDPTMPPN

[2] = system: T2, Myc-tagged GID-1 fragment of Xaxin (amino acid residues 277-545)
T2 sequence: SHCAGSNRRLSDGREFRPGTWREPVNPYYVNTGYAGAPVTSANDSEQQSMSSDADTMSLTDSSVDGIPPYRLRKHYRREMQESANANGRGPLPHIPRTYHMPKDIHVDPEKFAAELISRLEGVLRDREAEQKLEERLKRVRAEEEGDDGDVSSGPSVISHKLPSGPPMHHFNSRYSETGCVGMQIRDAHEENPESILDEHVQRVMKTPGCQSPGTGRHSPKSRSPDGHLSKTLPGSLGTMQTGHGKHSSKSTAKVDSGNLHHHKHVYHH

[3] = system: Myc-tagged N-term fragment of Xaxin (amino acid residues 63-288)
Chain of Myc-tagged N-term fragment of Xaxin (amino acid residues 63-288) (chain, as listed by the source): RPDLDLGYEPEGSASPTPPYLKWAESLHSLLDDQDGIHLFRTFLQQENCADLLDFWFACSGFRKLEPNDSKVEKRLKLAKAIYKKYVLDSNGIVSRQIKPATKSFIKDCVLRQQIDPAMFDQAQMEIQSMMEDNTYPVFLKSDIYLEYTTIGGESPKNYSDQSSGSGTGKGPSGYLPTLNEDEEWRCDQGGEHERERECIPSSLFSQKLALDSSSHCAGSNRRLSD

[4] = system: Myc-tagged deltaDIX construct of Xaxin (amino acid residues 1-778)
[5] = system: Myc-tagged deltaGID construct of Xaxin (amino acid residues 1-324 fused to residues 504-842)
[6] = system: T3, Myc-tagged deltaRGS construct of Xaxin (amino acid residues 1-80 fused to residues 290-842)
T3 sequence: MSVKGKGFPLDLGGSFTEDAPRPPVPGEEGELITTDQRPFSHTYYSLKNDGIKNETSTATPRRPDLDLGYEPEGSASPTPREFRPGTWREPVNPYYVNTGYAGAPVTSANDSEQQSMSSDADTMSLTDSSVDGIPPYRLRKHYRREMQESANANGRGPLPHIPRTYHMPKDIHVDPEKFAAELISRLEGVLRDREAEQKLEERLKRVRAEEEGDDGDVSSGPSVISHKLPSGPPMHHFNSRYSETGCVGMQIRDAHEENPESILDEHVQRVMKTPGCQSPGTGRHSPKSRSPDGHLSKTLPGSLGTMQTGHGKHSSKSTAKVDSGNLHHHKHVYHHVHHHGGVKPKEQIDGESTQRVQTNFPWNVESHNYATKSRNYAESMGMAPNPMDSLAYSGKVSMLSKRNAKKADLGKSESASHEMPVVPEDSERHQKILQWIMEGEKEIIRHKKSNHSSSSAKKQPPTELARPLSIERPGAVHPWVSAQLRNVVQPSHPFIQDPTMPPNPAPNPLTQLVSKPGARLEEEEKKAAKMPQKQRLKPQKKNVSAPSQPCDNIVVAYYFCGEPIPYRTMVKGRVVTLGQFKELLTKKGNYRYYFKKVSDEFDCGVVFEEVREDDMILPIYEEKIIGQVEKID

[7] = system: Myc-tagged full length Xenopus axin (FL Xaxin, amino acid residues 1-842)

In the case of “GSK-3 beta (glycogen synthase kinase-3 beta) expressed in Xenopus oocytes”, the “GSK-3 beta-mediated tau phosphorylation in Xenopus oocytes (PHF-1 immunoblot)” value (“GSK-3 beta-mediated tau phosphorylation” for short) [1] is reported as “had no effect on GSK-3 beta activity”, the “GSK-3 beta mediated tau phosphorylation in Xenopus oocytes” value [2] is reported as “bound GSK-3 beta and inhibited GSK-3 beta mediated tau phosphorylation” and the “GSK-3 beta-mediated tau phosphorylation” value [2] is reported as “virtually complete inhibition of GSK-3 beta-mediated tau phosphorylation”. For the same substance, the “GSK-3 beta-mediated tau phosphorylation” value [3] was “had no effect on GSK-3 beta activity”, the “GSK-3 beta activity (tau phosphorylation assay in Xenopus oocytes)” value [4] was “partially inhibited GSK-3 beta activity” and the “GSK-3 beta activity in the tau-phosphorylation assay in Xenopus oocytes” value [5] was “had no discernible effect on GSK-3 beta activity in the tau-phosphorylation assay”. For the same substance, the “tau protein phosphorylation mediated by GSK-3 beta in Xenopus oocytes” value [6] was “inhibited tau protein phosphorylation mediated by GSK-3 beta in a dose-dependent manner” and the “GSK-3 beta-mediated tau phosphorylation” value [7] was “had no discernible effect on tau phosphorylation”.
